The term Kd denotes the free concentration of one partner at which half of the binding sites on the other are occupied at equilibrium, for simple one-to-one binding.

Assay [1] addresses T1, CD3 (cluster of differentiation 3) (UniProt P07766 23-126).
T1 construct: also called CD3 antigen
Description: method not stated; monovalent KD used to calculate CD3 receptor occupancy.

For assay [2], the target named is CD3 on T cells of human peripheral blood mononuclear cells (PBMCs) (human, UniProt P07766 23-207). Kind of assay: cell-based or functional assay.
Assay [3] deals with T2, FcRH5 (fragment crystallizable receptor-like 5) on MOLP-2 cells (human, UniProt Q96RD9 16-977).
T2 sequence (looked up): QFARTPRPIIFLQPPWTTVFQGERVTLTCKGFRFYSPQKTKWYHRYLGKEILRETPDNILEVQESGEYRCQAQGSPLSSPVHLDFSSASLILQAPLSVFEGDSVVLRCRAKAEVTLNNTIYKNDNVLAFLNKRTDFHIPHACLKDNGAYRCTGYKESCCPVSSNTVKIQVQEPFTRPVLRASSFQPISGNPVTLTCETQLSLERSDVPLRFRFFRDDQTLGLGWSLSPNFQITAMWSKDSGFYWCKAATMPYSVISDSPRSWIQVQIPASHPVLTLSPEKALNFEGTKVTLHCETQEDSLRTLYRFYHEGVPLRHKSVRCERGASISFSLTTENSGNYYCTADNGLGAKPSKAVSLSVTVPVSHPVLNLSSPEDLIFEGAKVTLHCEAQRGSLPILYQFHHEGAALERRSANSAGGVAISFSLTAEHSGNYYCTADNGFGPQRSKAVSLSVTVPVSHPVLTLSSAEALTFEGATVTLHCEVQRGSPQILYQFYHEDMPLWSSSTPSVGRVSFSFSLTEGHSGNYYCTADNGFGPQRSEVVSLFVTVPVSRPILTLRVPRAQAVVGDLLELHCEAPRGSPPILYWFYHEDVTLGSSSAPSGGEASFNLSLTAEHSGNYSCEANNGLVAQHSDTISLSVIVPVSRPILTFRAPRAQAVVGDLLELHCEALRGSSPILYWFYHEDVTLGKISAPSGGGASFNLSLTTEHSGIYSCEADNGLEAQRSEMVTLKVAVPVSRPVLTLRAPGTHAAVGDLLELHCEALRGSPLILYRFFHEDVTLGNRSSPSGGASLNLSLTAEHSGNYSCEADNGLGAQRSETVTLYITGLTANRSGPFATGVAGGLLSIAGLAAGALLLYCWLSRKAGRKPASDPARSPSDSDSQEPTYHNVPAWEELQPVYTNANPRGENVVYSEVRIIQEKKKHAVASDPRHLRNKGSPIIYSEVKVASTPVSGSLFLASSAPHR
Description: cell-based or functional assay.

CD3 on T cells of human peripheral blood mononuclear cells (PBMCs), sequence (P07766 23-207): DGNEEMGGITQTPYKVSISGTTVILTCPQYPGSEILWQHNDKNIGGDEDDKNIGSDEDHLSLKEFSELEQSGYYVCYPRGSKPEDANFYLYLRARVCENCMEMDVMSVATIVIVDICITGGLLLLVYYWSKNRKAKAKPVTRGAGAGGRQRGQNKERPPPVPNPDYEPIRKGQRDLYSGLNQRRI
T1 sequence (P07766 23-126): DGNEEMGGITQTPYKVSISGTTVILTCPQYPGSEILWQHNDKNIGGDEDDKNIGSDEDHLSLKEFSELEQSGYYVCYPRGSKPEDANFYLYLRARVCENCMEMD

B1: cevostamab (bispecific antibody, human IgG1, kappa, N297G)
heavy 1: not shown
light 1: DIQMTQSPSSLSASVGDRVTITCKASQDVRNLVVWFQQKPGKAPKLLIYSGSYRYSGVPSRFSGSGSGTDFTLTISSLQPEDFATYYCQQHYSPPYTFGQGTKVEIKRTVAAPSVFIFPPSDEQLKSGTASVVCLLNNFYPREAKVQWKVDNALQSGNSQESVTEQDSKDSTYSLSSTLTLSKADYEKHKVYACEVTHQGLSSPVTKSFNRGEC
heavy 2: EVQLVQSGAEVKKPGASVKVSCKASGFTFTSYYIHWVRQAPGQGLEWIGWIYPENDNTKYNEKFKDRVTITADTSTSTAYLELSSLRSEDTAVYYCARDGYSRYYFDYWGQGTLVTVSSASTKGPSVFPLAPSSKSTSGGTAALGCLVKDYFPEPVTVSWNSGALTSGVHTFPAVLQSSGLYSLSSVVTVPSSSLGTQTYICNVNHKPSNTKVDKKVEPKSCDKTHTCPPCPAPELLGGPSVFLFPPKPKDTLMISRTPEVTCVVVDVSHEDPEVKFNWYVDGVEVHNAKTKPREEQYGSTYRVVSVLTVLHQDWLNGKEYKCKVSNKALPAPIEKTISKAKGQPREPQVYTLPPSREEMTKNQVSLSCAVKGFYPSDIAVEWESNGQPENNYKTTPPVLDSDGSFFLVSKLTVDKSRWQQGNVFSCSVMHEALHNHYTQKSLSLSPGK
light 2: not shown
notes: Humanized full-length non-glycosylated IgG1 kappa, knobs-into-holes; also called BFCR4350A; RO7187797
B1: the Kd in assay [1] is 2.6 nM. Besides, the “EC50 for T-cell activation in the in vitro human PBMC:MOLP-2 co-culture” value in assay [2] and in assay [3] was 0.0588 µg/mL in each case.

(Values after patent publication US20240018245A1 (Genentech, published 2024).)
